In publication PMC9122598, “NASP maintains histone H3–H4 homeostasis through two distinct H3 binding modes” (Nucleic Acids Research, 2022):
Blank lines part the entries; values can stand above or below the substance they belong to.

Columns and labels:
[1] = biological target: sNASPc dimer (human sNASP a.a. 30–340, Δ101–159; 'sNASP core') (human) (UniProt P49321); assay: SEC-MALS; single purified protein on Superdex 200 Increase 10/300 GL; 20 mM Tris pH 7.5, 0.5 M NaCl; room temperature
[2] = biological target: frog NASP.Sc dimer (X. laevis NASP.S a.a. 23–495, Δ97–314; 'NASP.S core') (Xenopus laevis) (UniProt P06180); assay: as above
[3] = biological target: Histone H3 (MBP fusion) 116-135 (Homo sapiens) (UniProt P68431); details: cited from earlier work

Sequence of sNASP (P49321 2-788): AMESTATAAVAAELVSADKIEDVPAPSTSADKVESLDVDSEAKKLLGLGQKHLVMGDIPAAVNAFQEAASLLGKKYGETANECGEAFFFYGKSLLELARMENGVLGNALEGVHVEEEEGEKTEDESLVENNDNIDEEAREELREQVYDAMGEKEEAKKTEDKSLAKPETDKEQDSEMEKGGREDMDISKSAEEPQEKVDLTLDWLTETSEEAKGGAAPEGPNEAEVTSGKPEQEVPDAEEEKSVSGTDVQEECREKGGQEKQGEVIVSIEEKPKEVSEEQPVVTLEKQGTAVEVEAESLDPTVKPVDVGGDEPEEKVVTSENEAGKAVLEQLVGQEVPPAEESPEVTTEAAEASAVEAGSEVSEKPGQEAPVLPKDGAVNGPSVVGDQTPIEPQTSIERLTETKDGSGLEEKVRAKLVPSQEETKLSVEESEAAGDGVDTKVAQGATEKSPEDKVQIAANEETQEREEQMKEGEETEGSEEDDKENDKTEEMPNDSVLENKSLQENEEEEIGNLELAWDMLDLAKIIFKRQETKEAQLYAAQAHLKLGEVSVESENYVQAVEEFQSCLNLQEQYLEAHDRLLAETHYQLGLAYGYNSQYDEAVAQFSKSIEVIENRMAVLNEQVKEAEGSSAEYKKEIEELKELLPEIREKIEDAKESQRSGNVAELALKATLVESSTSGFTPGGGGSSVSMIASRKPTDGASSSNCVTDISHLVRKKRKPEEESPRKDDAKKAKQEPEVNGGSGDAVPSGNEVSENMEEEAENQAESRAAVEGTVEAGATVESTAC

stoichiometry N [1]: 2
Substance: sNASPc dimer (human sNASP a.a. 30–340, Δ101–159; 'sNASP core') (from UniProt P49321-2 30-340) (domain or fragment)

stoichiometry N [2]: 2
Substance: frog NASP.Sc dimer (X. laevis NASP.S a.a. 23–495, Δ97–314; 'NASP.S core') (from UniProt P06180 23-495) (domain or fragment)

Substance: sNASP (from UniProt P49321)
Kd [3]: 61 nM
